Results as given in patent publication US20230055235.
pIC50, pKd: −log10 of the molar value.

How the values were obtained:
[1] = molecular target: T1, PD-L1 (programmed death-ligand 1) (Homo sapiens?) (UniProt Q9NZQ7); test: inhibition; conditions: PD-1/PD-L1 binding ELISA
[2] = molecular target: T1, PD-L1 (programmed death-ligand 1); test: filter; conditions: 37 C

T1 sequence (Q9NZQ7 19-238): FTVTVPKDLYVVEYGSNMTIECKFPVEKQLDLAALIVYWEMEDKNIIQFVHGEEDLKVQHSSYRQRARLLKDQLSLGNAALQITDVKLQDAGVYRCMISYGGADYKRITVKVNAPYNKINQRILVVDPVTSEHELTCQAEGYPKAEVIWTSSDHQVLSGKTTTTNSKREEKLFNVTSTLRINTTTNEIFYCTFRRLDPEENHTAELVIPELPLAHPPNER

| Sequence | pIC50 ([1]; Bz-dU at every n) | also measured |
| --- | --- | --- |
| AAGTTTTTGATTGTACCTTAGTGC [PL009] | 8.34 |  |
| ATGAAAAGTTTTTGATTGTACCTTAGTGC [PL004] | 8.15 |  |
| ATGAAAAGTTTTTGATTGTACCTTAGTGCACTCAACAGTG [PL019] | 7.82 |  |
| ATGCCGCACGATCGCCCTATTTTGCGAGTTTAC [PL007] |  | pIC50 ([1]; Bz-dU at every n, anti-PD-L1 antibody 1.2 nM): 8.33 |
| GAGTGACCGTCTGCCTGATGAAAAGTTTTTGATTGTACCTTAGTGCACTCAACAGTGCAGCCACACCACCAGCC [PL001] |  | pKd ([2]; 5-(N-benzylcarboxamide)-2'-deoxyuridine (Bz-dU) at every n, Bmax 0.07): 8.96; pIC50 ([1]; 5-(N-benzylcarboxamide)-2'-deoxyuridine (Bz-dU) at every n): 8.22; pIC50 ([1]; 5-(N-benzylcarboxamide)-2'-deoxyuridine (Bz-dU) at every n, repeat experiment): 7.98 |
| GAGTGACCGTCTGCCTGCCATTTCCTGCTTGCTCTTCCTCCTTTATTTTTCACCTTTCAGCCACACCACCAGCC [PL029] |  | pKd ([2]; Bz-dU at every n, Bmax 0.10): 6.61 |
| GAGTGACCGTCTGCCTGTGTATGCCGCACGATCGCCCTATTTTGCGAGTTTAACTGACAGCCACACCACCAGCC [PL028] |  | pKd ([2]; Bz-dU at every n, Bmax 0.06): 8.87 |
| GAGTGACCGTCTGCCTGTGTATGCCGCACGATCGCCCTATTTTGCGAGTTTACTCACAGCCACACCACCAGCC [PL002] | 7.50 | pKd ([2]; Bz-dU at every n, Bmax 0.05, 40 mM HEPES, 102 mM NaCl, 5 mM KCl): 9.74 |
| GAGTGACCGTCTGCCTGTTAAGCGGCTAAGTTTTTGATTGTACCTTAGTGCCCTTACCAGCCACACCACCAGCC [PL010] |  | pKd ([2]; Bz-dU at every n, Bmax 0.06): 9.03 |
| GCCTGATGAAAAGTTTTTGATTGTACCTTAGTGC [PL003] | 8.20 |  |
| GCCTGATGAAAAGTTTTTGATTGTACCTTAGTGCACTCAACAGTGC [PL017] | 8.40 |  |
| GCCTGATGAAAAGTTTTTGATTGTACCTTAGTGCACTCAACAGTGCAGCC [PL016] | 8.48 |  |
| GCCTGTGTATGCCGCACGATCGCCCTATTTTGCGAGTTTACTCACAGCC [PL005] | 7.90 |  |
| TGTATGCCGCACGATCGCCCTATTTTGCGAGTTTACTCA [PL006] | 8.02 |  |
